Test results from US20260166139A1.
Where “and” joins values, the source holds several entries; their conditions need not be identical. Equal entries are not always repeated.

Legend:
[1] = target: CTLA4-mFc; test: competitive ELISA, CTLA4-mFc coated, competitor B7/2-His; antibody 1 µg/ml diluted 1:3
[2] = target: CTLA4-mFc; test: competition ELISA, coat B7/1-hFc 0.2 ug/ml (competitor), CTLA4-mFc 0.3 ug/ml detected; antibody 1:81 (start 3 ug/ml)
[3] = target: CTLA4-mFc; test: competitive ELISA, B7/1-hFc coated (competitor), CTLA4-mFc added; antibody 5 µg/ml diluted 1:27
[4] = target: human CTLA4 (human) (UniProt P16410); test: ELISA, coat human CTLA4 0.5 ug/ml; antibody 0 (blank)
[5] = target: CTLA4-mFc; test: competitive ELISA, competitor B7-2; control run with 8D2H2L2
[6] = target: monkey CTLA4-hFc (monkey); test: ELISA, coat monkey CTLA4-hFc 0.25 ug/ml; antibody 1:3 (start 1 ug/ml)
[7] = target: CTLA4-mFc; test: competitive ELISA, B7/1-hFc coated (competitor), CTLA4-mFc added; antibody 5 µg/ml diluted 1:9
[8] = target: CTLA4-mFc; test: competitive ELISA, CTLA4-mFc coated, competitor B7/2-His; antibody 0 (no antibody)
[9] = target: CTLA4-mFc; test: competition ELISA, coat B7/1-hFc 0.2 ug/ml (competitor), CTLA4-mFc 0.3 ug/ml detected; antibody 1:243 (start 3 ug/ml)
[10] = target: human CTLA4 (human) (UniProt P16410); test: ELISA, coat human CTLA4 0.5 ug/ml; antibody 1:9 (start 1 ug/ml)
[11] = target: human CTLA4 (human) (UniProt P16410); test: ELISA on coated CTLA4, source Human (row of 8D2H2L2)
[12] = target: CTLA4-mFc; test: competitive ELISA, B7/1-hFc coated (competitor), CTLA4-mFc added; antibody 5 µg/ml diluted 1:81
[13] = target: human CTLA4 (human) (UniProt P16410); test: ELISA, coat CTLA4 0.5 ug/ml; antibody 1:9 (start 1 ug/ml)
[14] = target: human CTLA4 (human) (UniProt P16410); test: ELISA, coat human CTLA4 0.5 ug/ml; antibody 1:3 (start 1 ug/ml)
[15] = target: human CTLA4 (human) (UniProt P16410); test: ELISA, coat human CTLA4 0.5 ug/ml; antibody 1:81 (start 1 ug/ml)
[16] = target: human CTLA4 (human) (UniProt P16410); test: ELISA, coat human CTLA4 0.5 ug/ml; antibody 1:9 (start 1 ug/ml); remark: listed apart in the source
[17] = target: monkey CTLA4-hFc (monkey); test: ELISA, coat monkey CTLA4-hFc 0.25 ug/ml; antibody 1:729 (start 1 ug/ml)
[18] = target: CTLA4-mFc; test: competitive ELISA, B7/1-hFc coated (competitor), CTLA4-mFc added; antibody 0 (no antibody)
[19] = target: human CTLA4 (human) (UniProt P16410); test: ELISA, coat CTLA4 0.5 ug/ml; antibody 1:27 (start 1 ug/ml)
[20] = target: CTLA4-mFc; test: competitive ELISA, B7/1-hFc coated (competitor), CTLA4-mFc added; antibody 5 µg/ml diluted 1:243
[21] = target: monkey CTLA4-hFc (monkey); test: ELISA, coat monkey CTLA4-hFc 0.25 ug/ml; antibody 1:9 (start 1 ug/ml)
[22] = target: CTLA4-mFc; test: competitive ELISA, competitor B7-2; control run with 8D2
[23] = target: CTLA4-mFc; test: competitive ELISA, CTLA4-mFc coated, competitor B7/2-His; antibody 0 (no antibody); remark: listed apart in the source
[24] = target: CTLA4-mFc; test: competitive ELISA, CTLA4-mFc coated, competitor B7/2-His; antibody 3 µg/ml diluted 1:729
[25] = target: CTLA4-mFc; test: competitive ELISA, CTLA4-mFc coated, competitor B7/2-His; antibody 1 µg/ml
[26] = target: CTLA4-mFc; test: competitive ELISA, CTLA4-mFc coated, competitor B7/2-His; antibody 1.5 µg/ml diluted 1:9

Sequence of CTLA4-mFc (chain, as listed by the source limits assumed): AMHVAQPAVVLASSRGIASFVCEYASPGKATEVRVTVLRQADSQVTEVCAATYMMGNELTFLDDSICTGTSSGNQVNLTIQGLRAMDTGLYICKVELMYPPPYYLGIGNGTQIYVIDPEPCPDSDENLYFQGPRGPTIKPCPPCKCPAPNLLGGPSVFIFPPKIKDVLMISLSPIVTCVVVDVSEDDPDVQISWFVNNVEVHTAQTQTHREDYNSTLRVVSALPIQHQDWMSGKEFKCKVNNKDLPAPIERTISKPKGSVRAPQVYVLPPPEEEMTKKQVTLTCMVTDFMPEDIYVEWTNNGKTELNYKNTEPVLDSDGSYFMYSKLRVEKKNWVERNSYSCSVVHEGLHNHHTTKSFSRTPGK
Sequence of human CTLA4 (human) (P16410 36-161 limits assumed): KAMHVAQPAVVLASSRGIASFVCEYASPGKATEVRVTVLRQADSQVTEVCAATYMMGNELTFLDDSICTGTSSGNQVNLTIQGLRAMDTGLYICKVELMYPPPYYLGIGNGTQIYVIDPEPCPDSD
Sequence of control antibody 11.2.1 (VH): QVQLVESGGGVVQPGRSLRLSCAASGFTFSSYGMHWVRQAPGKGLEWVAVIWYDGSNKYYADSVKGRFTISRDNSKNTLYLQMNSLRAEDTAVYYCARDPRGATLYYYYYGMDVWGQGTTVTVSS
Sequence of control antibody 11.2.1 (VL): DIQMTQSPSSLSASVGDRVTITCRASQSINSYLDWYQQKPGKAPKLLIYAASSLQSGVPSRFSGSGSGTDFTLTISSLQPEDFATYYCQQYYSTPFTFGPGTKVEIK

absorbance at 450 nm [1]: 0.05 | absorbance at 450 nm [2]: 0.65 and 0.613 | absorbance at 450 nm [3]: 0.488 and 0.369 | absorbance at 450 nm [4]: 0.057 and 0.061 | EC50 [5]: 0.172 nM | absorbance at 450 nm [6]: 1.54 and 1.46 | absorbance at 450 nm [7]: 0.33 and 0.3 | absorbance at 450 nm [8]: 0.91 and 0.8 | absorbance at 450 nm [9]: 0.9 and 0.52 | absorbance at 450 nm [10]: 1.29 and 1.41 | EC50 [11]: 0.09 nM | absorbance at 450 nm [12]: 1.17 and 1.2 | absorbance at 450 nm [13]: 2.69 and 2.44 | absorbance at 450 nm [14]: 1.82 and 2.05 | absorbance at 450 nm [15]: 1.25 and 1.27 | absorbance at 450 nm [16]: 3.21 and 3.19 | absorbance at 450 nm [17]: 0.082 and 0.094 | absorbance at 450 nm [18]: 1.28 and 1.3 | absorbance at 450 nm [19]: 2.13 and 2.28 | absorbance at 450 nm [20]: 1.3 and 1.31 | absorbance at 450 nm [21]: 1.11 and 1.05 | EC50 [22]: 0.15 nM | absorbance at 450 nm [23]: 1.19 and 1.1 | absorbance at 450 nm [24]: 1.36 and 1.23 | absorbance at 450 nm [25]: 0.04 | absorbance at 450 nm [26]: 0.479 and 0.412
Substance: control antibody 11.2.1
